The results in this text go back to PMC8487046, “Insights into the ligand binding specificity of SREC‐II (scavenger receptor expressed by endothelial cells)” (FEBS Open Bio, 2021).

To fix the notation:
B1: SREC‐II(44‐442), extracellular domain of scavenger receptor expressed by endothelial cells II (domain or fragment)
chain: QELNPRGRNVCRAPGSQVPTCCAGWRQQGDECGIAVCEGNSTCSENEVCVRPGECRCRHGYFGANCDTKCPRQFWGPDCKELCSCHPHGQCEDVTGQCTCHARRWGARCEHACQCQHGTCHPRSGACRCEPGWWGAQCASACYCSATSRCDPQTGACLCHAGWWGRSCNNQCACNSSPCEQQSGRCQCRERTFGARCDRYCQCFRGRCHPVDGTCACEPGYRGKYCREPCPAGFYGLGCRRRCGQCKGQQPCTVAEGRCLTCEPGWNGTKCDQPCATGFYGEGCSHRCPPCRDGHACNHVTGKCTRCNAGWIGDRCETKCSNGTYGEDCAFVCADCGSGHCDFQSGRCLCSPGVHGPHCNVTCPPGLHGADCAQACSCHEDTCDPVTGACHLETNQRKGLIK
modifications: N‐terminal glutamine 44 converted to pyroglutamate; N‐glycosylated (extra mass of 11.3 kDa)
notes: SREC-II (encoded by SCARF2), extracellular moiety; 3 amino acids (Leu-Ile-Lys) between Gly442 and the 8 His residues; also called SREC‐II ectodomain; soluble SREC‐II; not shown: His8, C-terminal, kept
B2: recombinant human calreticulin (CRT) (natural protein, UniProt P27797 18-417, looked up)
chain: EPAVYFKEQFLDGDGWTSRWIESKHKSDFGKFVLSSGKFYGDEEKDKGLQTSQDARFYALSASFEPFSNKGQTLVVQFTVKHEQNIDCGGGYVKLFPNSLDQTDMHGDSEYNIMFGPDICGPGTKKVHVIFNYKGKNVLINKDIRCKDDEFTHLYTLIVRPDNTYEVKIDNSQVESGSLEDDWDFLPPKKIKDPDASKPEDWDERAKIDDPTDSKPEDWDKPEHIPDPDAKKPEDWDEEMDGEWEPPVIQNPEYKGEWKPRQIDNPDYKGTWIHPEIDNPEYSPDPSIYAYDNFGVLGLDLWQVKSGTIFDNFLITNDEAYAEEFGNETWGVTKAAEKQMKDKQDEEQRLKEEEEDKKRKEEEEAEDKEDDEDKDEDEEDEEDKEEDEEEDVPGQAKDEL
notes: calreticulin, human; source: recombinant, produced according to published procedures [6, 9]

In experiment [1] the target is T1, complement C1q, purified human (human, UniProt P02745 23-245; P02746 28-253; P02747 29-245).
T1 construct: MW used: 459 300 g/mol; source: purified human C1q, prepared as described previously [8]; copies: + +
T1 sequence (P02745 23-245, chain 1 of 3): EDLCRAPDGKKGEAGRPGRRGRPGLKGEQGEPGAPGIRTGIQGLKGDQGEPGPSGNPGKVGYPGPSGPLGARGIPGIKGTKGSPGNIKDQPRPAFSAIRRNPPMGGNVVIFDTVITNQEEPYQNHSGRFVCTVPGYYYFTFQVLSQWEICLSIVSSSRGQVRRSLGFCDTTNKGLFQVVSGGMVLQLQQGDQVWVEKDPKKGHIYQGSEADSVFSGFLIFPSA
T1 sequence (P02746 28-253, chain 2 of 3): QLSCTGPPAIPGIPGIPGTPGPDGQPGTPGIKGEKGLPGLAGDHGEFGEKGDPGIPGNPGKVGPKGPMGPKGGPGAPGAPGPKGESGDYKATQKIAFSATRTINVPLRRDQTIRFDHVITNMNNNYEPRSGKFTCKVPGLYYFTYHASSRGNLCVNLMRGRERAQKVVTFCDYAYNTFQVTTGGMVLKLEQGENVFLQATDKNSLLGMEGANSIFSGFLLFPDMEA
T1 sequence (P02747 29-245, chain 3 of 3): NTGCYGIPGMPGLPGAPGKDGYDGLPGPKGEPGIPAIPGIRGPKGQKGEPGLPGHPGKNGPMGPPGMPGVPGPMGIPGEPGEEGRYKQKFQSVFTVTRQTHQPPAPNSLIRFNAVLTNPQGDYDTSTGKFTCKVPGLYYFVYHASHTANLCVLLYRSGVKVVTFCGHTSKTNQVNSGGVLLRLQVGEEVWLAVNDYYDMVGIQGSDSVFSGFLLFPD
As to the kind of experiment: SPR; C1q immobilized (18 700 RU, CM5, amine coupling; BSA as reference surface), serially diluted SREC-II(44-442) injected; TBS-Ca-P; 20 µL/min; 25 °C; global fit, 1:1 Langmuir model; apparent KD. Particulars: both partners purified. In general terms: In SPR one partner is held on a chip, and binding of the other changes the refractive index at the surface.

Experiment [2] addresses B1. As to the kind of experiment: SPR; SREC-II(44-442) immobilized (1973 RU, CM5, amine coupling), CRT injected at five increasing concentrations in single cycle kinetics mode; TBS-Ca-P; 30 µL/min; 25 °C; global fit, two-state reaction model; apparent KD. To be noted: both partners purified.

As usually defined, the koff is the first-order rate constant of dissociation. The kon is a measure of how fast the partners come together. On to B1, for which, in experiment [1], the Kd is 45 nM, the koff came to 0.001 s⁻¹ and the kon came to 20000 M⁻¹ s⁻¹.
With B2, in experiment [2], the Kd amounted to 290 nM.
